Target: T1, human renin (Homo sapiens, UniProt P00797)
T1 construct: purchased Biovision, Inc. San Francisco, CA
T1 sequence (P00797 67-406): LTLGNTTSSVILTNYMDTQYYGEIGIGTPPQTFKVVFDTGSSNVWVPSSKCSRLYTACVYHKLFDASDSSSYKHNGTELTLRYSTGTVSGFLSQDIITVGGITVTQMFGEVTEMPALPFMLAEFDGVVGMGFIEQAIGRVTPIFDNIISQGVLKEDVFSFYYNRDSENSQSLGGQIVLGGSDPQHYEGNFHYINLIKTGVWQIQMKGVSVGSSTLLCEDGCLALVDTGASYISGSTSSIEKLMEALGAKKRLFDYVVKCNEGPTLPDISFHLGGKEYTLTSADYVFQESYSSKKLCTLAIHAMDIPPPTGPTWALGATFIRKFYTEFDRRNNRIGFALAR
Test: Renin inhibition screening kit, kinetic fluorescence measurement of renin enzyme activity
Assay type: biochemical
Conditions: for Inhibition of renin activity (in words): 10 nM, 100 nM and 500 nM, FIG. 5; for Mean inhibitory effect on renin activity: 37° C, 60 min kinetic fluorescence
Source text: Human hepcidin-25/LEAP-1 (hep-25, with disulfide bonds between Cys7-Cys23, Cys10-Cys13, […], and Cys14-Cys22, purity assessed by HPLC≥98.0%) was purchased from Peptides International (Peptides International Inc, Louisville, KY). N-terminal part of hepcidin, DTHFPICIF (hep-9; SEQ ID NO: 6) and DTHFP (hep-5; SEQ ID NO: 7), were synthetized by Proteogenix (Schiltigheim, France). Renin inhibition screening kit was purchased from Biovision (Biovision, Inc. San Francisco, CA). ForteBio's 96 well black plates were used in the measurements.
Hep-25, hep-9, and hep-5 were used in final sample concentrations of 10 nM, 100 nM and 500 nM to measure inhibition of renin enzyme activity. The concentrations used represent normal levels of hepcidin in human circulation. Fluorescence measurement was performed using Perkin Elmer UV/VIS Envision multimode plate reader. Excitation and emission wavelengths were 328 and 552 nm, respectively. Fluorescence was recorded every 60 s for 60 min at 37° C. Rate of renin inhibition was calculated following the manufacture's instructions.

Substance	Inhibition of renin activity (in words)	Mean inhibitory effect on renin activity (peptide concentration 10 nM) [%]	Mean inhibitory effect on renin activity (peptide concentration 100 nM) [%]	Mean inhibitory effect on renin activity (peptide concentration 500 nM) [%]
DTHFP [hepcidin-5, N-terminal part of hepcidin, 5 amino acids, synthetized by Proteogenix]	inhibited renin activity	50.1	50.0	58.6
DTHFPICIF [hepcidin-9]	inhibited renin activity	41.25	41.15	42.65
hepcidin-25: mature bioactive 25 amino acid hepcidin peptide, SEQ ID NO: 1; purchased from Peptides International		20.4	29.2	38.3
